Target: T1, TwinStrep-BICD2 WT (mouse), Q921C5
T1 chain: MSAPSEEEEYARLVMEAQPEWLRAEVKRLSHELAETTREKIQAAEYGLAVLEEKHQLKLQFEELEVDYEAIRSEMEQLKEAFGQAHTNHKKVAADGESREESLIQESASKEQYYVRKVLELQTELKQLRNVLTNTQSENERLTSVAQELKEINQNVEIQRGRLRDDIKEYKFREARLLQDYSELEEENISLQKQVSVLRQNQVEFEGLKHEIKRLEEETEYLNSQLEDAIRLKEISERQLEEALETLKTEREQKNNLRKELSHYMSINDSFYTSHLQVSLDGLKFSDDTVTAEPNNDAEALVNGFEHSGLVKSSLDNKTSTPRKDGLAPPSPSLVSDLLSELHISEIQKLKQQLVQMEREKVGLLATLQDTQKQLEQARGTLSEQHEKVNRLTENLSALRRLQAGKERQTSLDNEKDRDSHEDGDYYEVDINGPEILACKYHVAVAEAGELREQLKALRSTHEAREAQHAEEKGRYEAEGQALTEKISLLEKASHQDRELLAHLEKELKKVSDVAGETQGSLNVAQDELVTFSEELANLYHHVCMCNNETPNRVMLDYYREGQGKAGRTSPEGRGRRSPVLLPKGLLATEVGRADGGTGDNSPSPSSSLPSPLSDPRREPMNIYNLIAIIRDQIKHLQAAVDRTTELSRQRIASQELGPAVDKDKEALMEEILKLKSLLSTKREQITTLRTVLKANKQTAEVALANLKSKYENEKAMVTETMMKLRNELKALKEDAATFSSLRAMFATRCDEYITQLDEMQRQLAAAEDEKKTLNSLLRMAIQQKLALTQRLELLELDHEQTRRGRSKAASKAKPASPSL
Assay: SEC-MALS; purified TwinStrep-BICD2 WT and S102D; predicted MW of ~190 kDa
Details: remark: other sources report otherwise

stoichiometry N: 2
B1: TwinStrep-BICD2 WT, Q921C5 1-820 (natural protein)
chain: MSAPSEEEEYARLVMEAQPEWLRAEVKRLSHELAETTREKIQAAEYGLAVLEEKHQLKLQFEELEVDYEAIRSEMEQLKEAFGQAHTNHKKVAADGESREESLIQESASKEQYYVRKVLELQTELKQLRNVLTNTQSENERLTSVAQELKEINQNVEIQRGRLRDDIKEYKFREARLLQDYSELEEENISLQKQVSVLRQNQVEFEGLKHEIKRLEEETEYLNSQLEDAIRLKEISERQLEEALETLKTEREQKNNLRKELSHYMSINDSFYTSHLQVSLDGLKFSDDTVTAEPNNDAEALVNGFEHSGLVKSSLDNKTSTPRKDGLAPPSPSLVSDLLSELHISEIQKLKQQLVQMEREKVGLLATLQDTQKQLEQARGTLSEQHEKVNRLTENLSALRRLQAGKERQTSLDNEKDRDSHEDGDYYEVDINGPEILACKYHVAVAEAGELREQLKALRSTHEAREAQHAEEKGRYEAEGQALTEKISLLEKASHQDRELLAHLEKELKKVSDVAGETQGSLNVAQDELVTFSEELANLYHHVCMCNNETPNRVMLDYYREGQGKAGRTSPEGRGRRSPVLLPKGLLATEVGRADGGTGDNSPSPSSSLPSPLSDPRREPMNIYNLIAIIRDQIKHLQAAVDRTTELSRQRIASQELGPAVDKDKEALMEEILKLKSLLSTKREQITTLRTVLKANKQTAEVALANLKSKYENEKAMVTETMMKLRNELKALKEDAATFSSLRAMFATRCDEYITQLDEMQRQLAAAEDEKKTLNSLLRMAIQQKLALTQRLELLELDHEQTRRGRSKAASKAKPASPSL

— PMC10140047
